In assay [1] the target is CH505 w053.16 gp120 (HIV-1). Description: ELISA, gp120 on plate.
For assay [2], the target named is CH505 w100.B6 gp120 (HIV-1). Description: ELISA, gp120 on plate.
Assay [3] addresses CH505 w030.21 gp120 (HIV-1). Nature of the assay: ELISA, gp120 on plate. On the technique in general: ELISA stands for enzyme-linked immunosorbent assay.
The target of assay [4] is CH505 w078.15 gp120 (HIV-1). Nature of the assay: ELISA, gp120 on plate.
The target in assay [5] is CH505 w078.33 gp120 (HIV-1). Nature of the assay: ELISA, gp120 on plate.
Assay [6] concerns the target CH505 transmitted/founder (TF) gp120 (HIV-1). Description: ELISA, gp120 on plate.
Assay [7] deals with HIV-1 426c.DM (N460D/N463D) Env on Env-pseudotyped virus produced in 293s/GnTI-/- cells (Man5-enrichment) (HIV-1). Description: cell-based or functional assay.
Assay [8] has as its target HIV-1 426c.TM (N276D/N460D/N463D) Env on Env-pseudotyped virus produced in 293T cells (HIV-1). Description: cell-based or functional assay.
In assay [9] the target is CH0505TF.gly3.197 Env, Env-pseudotyped virus produced in 293T cells (HIV-1). Description: cell-based or functional assay.
Assay [10] has as its target HIV-1 426c.TM (N276D/N460D/N463D) Env on Env-pseudotyped virus produced in 293s/GnTI-/- cells (Man5-enrichment) (HIV-1). Description: cell-based or functional assay.
Assay [11] has as its target HIV-1 CH0505TF.gly3.197 Env on Env-pseudotyped virus produced in 293S/GnTI-/- cells (Man5-enrichment) (HIV-1). Nature of the assay: cell-based or functional assay.
The target in assay [12] is HIV-1 Env 426c, Env-pseudotyped virus produced in 293S GnTI- cells (Man5-enriched) (HIV-1 clade C strain 426c). Description: cell-based or functional assay.
In assay [13] the target is HIV-1 CH0505TF.gly4 Env on Env-pseudotyped virus produced in 293S/GnTI-/- cells (Man5-enrichment) (HIV-1). Nature of the assay: cell-based or functional assay.
Assay [14] addresses CH0505TF.G458Y Env, Env-pseudotyped virus produced in 293T cells (HIV-1). Nature of the assay: cell-based or functional assay.
The target of assay [15] is HIV-1 426c.SM (N276D) Env on Env-pseudotyped virus produced in 293s/GnTI-/- cells (Man5-enrichment) (HIV-1). Description: cell-based or functional assay.
The target of assay [16] is CH0505TF Env, Env-pseudotyped virus produced in 293T cells (HIV-1). Description: cell-based or functional assay.
Assay [17] deals with HIV-1 Env 426c.TM4 (S278R.G471S.N460D.N463D), Env-pseudotyped virus produced in 293S GnTI- cells (Man5-enriched) (HIV-1 clade C strain 426c). Description: cell-based or functional assay.
Assay [18] concerns the target HIV-1 clade C strain 426c Env on Env-pseudotyped virus produced in 293s/GnTI-/- cells (Man5-enrichment) (HIV-1). Nature of the assay: cell-based or functional assay.
The target of assay [19] is CH0505TF.gly3.276 Env, Env-pseudotyped virus produced in 293T cells (HIV-1). Nature of the assay: cell-based or functional assay.
In assay [20] the target is HIV-1 CH0505TF.G458Y Env on Env-pseudotyped virus produced in 293S GnTI-/- cells (Man5-enrichment) (HIV-1). Description: cell-based or functional assay.
Assay [21] deals with CH0505TF G458W Env, pseudotyped virus produced in 293S GnTI- cells (HIV-1). Nature of the assay: cell-based or functional assay.
Assay [22] deals with HIV-1 CH0505TF.G458Y Env on Env-pseudotyped virus produced in 293T cells (HIV-1). Nature of the assay: cell-based or functional assay.
Assay [23] concerns the target CH0505TF G458D Env, pseudotyped virus produced in 293S GnTI- cells (HIV-1). Nature of the assay: cell-based or functional assay.
Assay [24] addresses CH0505TF G458K Env, pseudotyped virus produced in 293S GnTI- cells (HIV-1). Description: cell-based or functional assay.
The target in assay [25] is CH0505TF.gly4.G458Y Env, pseudotyped virus produced in 293S GnTI- cells (HIV-1). Nature of the assay: cell-based or functional assay.
For assay [26], the target named is CH0505TF G458E Env, pseudotyped virus produced in 293S GnTI- cells (HIV-1). Nature of the assay: cell-based or functional assay.
Assay [27] has as its target CH0505TF G458C Env, pseudotyped virus produced in 293S GnTI- cells (HIV-1). Nature of the assay: cell-based or functional assay.
Assay [28] has as its target CH0505TF G458R Env, pseudotyped virus produced in 293S GnTI- cells (HIV-1). Nature of the assay: cell-based or functional assay.
For assay [29], the target named is CH0505TF G458F Env, pseudotyped virus produced in 293S GnTI- cells (HIV-1). Description: cell-based or functional assay.
Assay [30] has as its target HIV-1 CH0505TF.G458Y Env on Env-pseudotyped virus produced in 293S GnTI-/- cells (Man5-enrichment) (HIV-1). Description: cell-based or functional assay. The source holds these as a separate data set.
In assay [31] the target is CH0505TF.gly4.G458Y Env, pseudotyped virus produced in 293T cells (HIV-1). Description: cell-based or functional assay.
The target of assay [32] is CH0505TF G458L Env, pseudotyped virus produced in 293S GnTI- cells (HIV-1). Description: cell-based or functional assay.
Assay [33] has as its target CH0505TF G458Y.N280D Env, pseudotyped virus produced in 293S GnTI- cells (HIV-1). Description: cell-based or functional assay.
Assay [34] addresses CH0505TF G458S Env, pseudotyped virus produced in 293S GnTI- cells (HIV-1). Nature of the assay: cell-based or functional assay.
For a further assay, the target named is CH505 M5 gp120 (HIV-1). Nature of the assay: method not named in the legend (FIG. 59F); GMP M5 gp120.

These results are taken from patent US20230140293A1.

pKd: −log10 of the molar value. Like-named read-outs stand apart in the source and are kept apart here.

Usually pKd stands for the Kd on a negative log10 scale, so that one unit is a factor of ten.

As for CH103 (antibody), the log AUC in assay [1] worked out at 11.6 log AUC; in assay [2], 7.1 log AUC; in assay [3] it was 12.2 log AUC; in assay [4] it was 10.7 log AUC; in assay [5], 11.1 log AUC; in assay [6] it was 12.6 log AUC. The ID50/IC50 in TZM-bl was found to be 0.63 µg/mL in [7]; 5.2 µg/mL in assay [8]; 0.09 µg/mL in [10]; 2.2 µg/mL in assay [15]; 5.3 µg/mL in assay [18]. The IC50 (µg/ml) in TZM-bl in assay [9] was determined as 1.6 µg/mL; in assay [12] it was 5.3 µg/mL; in assay [14], 6.4 µg/mL; in assay [16], 1.9 µg/mL; in [17], 0.48 µg/mL; in [19], 0.014 µg/mL. This substance also had an IC50 (µg/ml) in TZM-bl in assay [20] of 0.44 µg/mL. For the same substance, the IC50 (ug/ml) in TZM-bl cells was 0.19 µg/mL in [11] and 0.005 µg/mL in assay [13].

For the substance CH235 (antibody), the ID50/IC50 in TZM-bl in [7] is over 25 µg/mL; in assay [8] it was over 50 µg/mL; in assay [10] it was over 25 µg/mL; in [15] it was over 25 µg/mL; in assay [18], over 25 µg/mL. Besides, the IC50 (µg/ml) in TZM-bl cells in [21] is under 0.005 µg/mL; in assay [23] it was 0.011 µg/mL; in assay [24] it was 0.022 µg/mL; in assay [25] it was under 0.005 µg/mL; in assay [26] it was 0.012 µg/mL; in [27] it was 0.009 µg/mL. The IC50 (µg/ml) in TZM-bl cells was under 0.005 µg/mL in assay [28]; under 0.005 µg/mL in [29]; 0.064 µg/mL in assay [31]; 0.015 µg/mL in [32]; 2.69 µg/mL in assay [33]; 0.005 µg/mL in assay [34]. The IC50 (µg/ml) in TZM-bl is 0.2 µg/mL in assay [22]; 0.16 µg/mL in assay [9]; over 25 µg/mL in [12]; 0.1 µg/mL in [14]; under 0.02 µg/mL in assay [30]; 0.3 µg/mL in assay [16]. Besides, the IC50 (µg/ml) in TZM-bl was over 25 µg/mL in assay [17] and 0.034 µg/mL in [19]. Also, the figures for the IC50 (ug/ml) in TZM-bl cells in assay [11] and in [13] were 0.006 µg/mL and 0.004 µg/mL, respectively. Further, the pKd in the assay with CH505 M5 gp120 (HIV-1) is 8.10.
